test system: Escherichia coli TOP10; test: shrunken log2 fold change of peptide-encoding DNA abundance (4.5 h post-induction vs induction); higher = less antimicrobial activity (less host growth inhibition); conditions: time post-induction: 4.5 h; library: site-saturation at positions 5, 18, 19, 20
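Note: peptides expressed intracellularly from a pBAD plasmid library in pooled LB shake-flask culture, induced with 0.3% L-arabinose, DNA abundance read by NGS, three biological replicates, DESeq2 with apeglm shrinkage.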

Row | Sequence | shrunken log2 fold change
1 | RRIRTRPPRLPRPRPRPYVHPRP | -0.75
2 | RRIRTRPPRLPRPRPRPYWAPRP | -0.0649
3 | RRIRTRPPRLPRPRPRPYWCPRP | -0.53
4 | RRIRTRPPRLPRPRPRPYYKPRP | -0.38
5 | RRIRVRPPRLPRPRPRPAAEPRP | 0.109
6 | RRIRVRPPRLPRPRPRPAAFPRP | 0.227
7 | RRIRVRPPRLPRPRPRPAASPRP | 0.267
8 | RRIRVRPPRLPRPRPRPACNPRP | -0.0138
9 | RRIRVRPPRLPRPRPRPADSPRP | -0.0859
10 | RRIRVRPPRLPRPRPRPAFIPRP | 0.00175
11 | RRIRVRPPRLPRPRPRPAFWPRP | 2.56
12 | RRIRVRPPRLPRPRPRPAGDPRP | 0.778
13 | RRIRVRPPRLPRPRPRPAGMPRP | -0.0507
14 | RRIRVRPPRLPRPRPRPAHMPRP | -0.103
15 | RRIRVRPPRLPRPRPRPAKHPRP | -0.169
16 | RRIRVRPPRLPRPRPRPALRPRP | 0.306
17 | RRIRVRPPRLPRPRPRPANDPRP | 0.0219
18 | RRIRVRPPRLPRPRPRPAPSPRP | 0.342
19 | RRIRVRPPRLPRPRPRPAPWPRP | 0.395
20 | RRIRVRPPRLPRPRPRPASCPRP | -0.0873
21 | RRIRVRPPRLPRPRPRPASGPRP | -0.188
22 | RRIRVRPPRLPRPRPRPASRPRP | 0.275
23 | RRIRVRPPRLPRPRPRPATDPRP | 0.132
24 | RRIRVRPPRLPRPRPRPAVWPRP | 0.458
25 | RRIRVRPPRLPRPRPRPAWGPRP | 0.515

Row | Sequence | shrunken log2 fold change
26 | RRIRVRPPRLPRPRPRPAWSPRP | 0.192
27 | RRIRVRPPRLPRPRPRPAWWPRP | 0.156
28 | RRIRVRPPRLPRPRPRPAYGPRP | -0.473
29 | RRIRVRPPRLPRPRPRPAYTPRP | -0.286
30 | RRIRVRPPRLPRPRPRPCAAPRP | 0.121
31 | RRIRVRPPRLPRPRPRPCAGPRP | -0.106
32 | RRIRVRPPRLPRPRPRPCAHPRP | -0.0704
33 | RRIRVRPPRLPRPRPRPCASPRP | 0.116
34 | RRIRVRPPRLPRPRPRPCCDPRP | -0.182
35 | RRIRVRPPRLPRPRPRPCEPPRP | 0.137
36 | RRIRVRPPRLPRPRPRPCFSPRP | -0.356
37 | RRIRVRPPRLPRPRPRPCFYPRP | -0.511
38 | RRIRVRPPRLPRPRPRPCGLPRP | -0.173
39 | RRIRVRPPRLPRPRPRPCIHPRP | 0.0261
40 | RRIRVRPPRLPRPRPRPCIRPRP | -0.198
41 | RRIRVRPPRLPRPRPRPCKAPRP | 0.033
42 | RRIRVRPPRLPRPRPRPCKQPRP | -0.148
43 | RRIRVRPPRLPRPRPRPCKTPRP | -0.00208
44 | RRIRVRPPRLPRPRPRPCLEPRP | 0.0452
45 | RRIRVRPPRLPRPRPRPCLIPRP | -0.641
46 | RRIRVRPPRLPRPRPRPCLYPRP | -0.0189
47 | RRIRVRPPRLPRPRPRPCMAPRP | -0.276
48 | RRIRVRPPRLPRPRPRPCMNPRP | -0.31
49 | RRIRVRPPRLPRPRPRPCPLPRP | -0.418
50 | RRIRVRPPRLPRPRPRPCQNPRP | -0.293

Row | Sequence | shrunken log2 fold change
51 | RRIRVRPPRLPRPRPRPCSDPRP | -0.0601
52 | RRIRVRPPRLPRPRPRPCSQPRP | -0.0327
53 | RRIRVRPPRLPRPRPRPCTKPRP | -0.275
54 | RRIRVRPPRLPRPRPRPCTVPRP | -0.14
55 | RRIRVRPPRLPRPRPRPCVSPRP | -0.0282
56 | RRIRVRPPRLPRPRPRPCWAPRP | 0.154
57 | RRIRVRPPRLPRPRPRPCWHPRP | -0.0327
58 | RRIRVRPPRLPRPRPRPCYTPRP | -0.498
59 | RRIRVRPPRLPRPRPRPDCAPRP | 0.0509
60 | RRIRVRPPRLPRPRPRPDDIPRP | -0.442
61 | RRIRVRPPRLPRPRPRPDDVPRP | -0.297
62 | RRIRVRPPRLPRPRPRPDEYPRP | 0.0327
63 | RRIRVRPPRLPRPRPRPDGDPRP | -0.339
64 | RRIRVRPPRLPRPRPRPDGYPRP | -0.00884
65 | RRIRVRPPRLPRPRPRPDKGPRP | -0.591
66 | RRIRVRPPRLPRPRPRPDKYPRP | -0.277
67 | RRIRVRPPRLPRPRPRPDMEPRP | 0.0238
68 | RRIRVRPPRLPRPRPRPDMRPRP | -0.437
69 | RRIRVRPPRLPRPRPRPDNFPRP | 0.0216
70 | RRIRVRPPRLPRPRPRPDNLPRP | 0.0725
71 | RRIRVRPPRLPRPRPRPDPYPRP | -0.1
72 | RRIRVRPPRLPRPRPRPDQFPRP | -0.0568
73 | RRIRVRPPRLPRPRPRPDQNPRP | -0.0845
74 | RRIRVRPPRLPRPRPRPDVGPRP | -0.13
75 | RRIRVRPPRLPRPRPRPDWQPRP | 0.0968

Row | Sequence | shrunken log2 fold change
76 | RRIRVRPPRLPRPRPRPDWVPRP | -0.0925
77 | RRIRVRPPRLPRPRPRPEECPRP | 0.0155
78 | RRIRVRPPRLPRPRPRPEEEPRP | 0.0136
79 | RRIRVRPPRLPRPRPRPEEFPRP | -0.034
80 | RRIRVRPPRLPRPRPRPEEWPRP | 0.015
81 | RRIRVRPPRLPRPRPRPEFMPRP | -0.0942
82 | RRIRVRPPRLPRPRPRPEGAPRP | 0.451
83 | RRIRVRPPRLPRPRPRPEHEPRP | -0.12
84 | RRIRVRPPRLPRPRPRPEICPRP | 0.2
85 | RRIRVRPPRLPRPRPRPELLPRP | 0.0724
86 | RRIRVRPPRLPRPRPRPEMQPRP | 0.175
87 | RRIRVRPPRLPRPRPRPEMWPRP | 0.0217
88 | RRIRVRPPRLPRPRPRPENCPRP | -0.0723
89 | RRIRVRPPRLPRPRPRPENIPRP | -0.125
90 | RRIRVRPPRLPRPRPRPENWPRP | 0.131
91 | RRIRVRPPRLPRPRPRPERNPRP | -0.323
92 | RRIRVRPPRLPRPRPRPESDPRP | 0.0889
93 | RRIRVRPPRLPRPRPRPESNPRP | 0.0327
94 | RRIRVRPPRLPRPRPRPESSPRP | 0.00518
95 | RRIRVRPPRLPRPRPRPETMPRP | 0.0389
96 | RRIRVRPPRLPRPRPRPEVEPRP | -0.0626
97 | RRIRVRPPRLPRPRPRPEYCPRP | -0.154
98 | RRIRVRPPRLPRPRPRPEYGPRP | -0.00905
99 | RRIRVRPPRLPRPRPRPEYQPRP | -0.235
100 | RRIRVRPPRLPRPRPRPEYYPRP | 0.0358

Row | Sequence | shrunken log2 fold change
101 | RRIRVRPPRLPRPRPRPFCPPRP | -0.0571
102 | RRIRVRPPRLPRPRPRPFCWPRP | 0.163
103 | RRIRVRPPRLPRPRPRPFDNPRP | -0.359
104 | RRIRVRPPRLPRPRPRPFDVPRP | -0.0208
105 | RRIRVRPPRLPRPRPRPFECPRP | -0.0624
106 | RRIRVRPPRLPRPRPRPFGHPRP | 0.13
107 | RRIRVRPPRLPRPRPRPFGMPRP | -0.0877
108 | RRIRVRPPRLPRPRPRPFGTPRP | -0.0129
109 | RRIRVRPPRLPRPRPRPFHEPRP | 0.324
110 | RRIRVRPPRLPRPRPRPFHHPRP | -0.182
111 | RRIRVRPPRLPRPRPRPFIFPRP | -0.177
112 | RRIRVRPPRLPRPRPRPFNNPRP | -0.147
113 | RRIRVRPPRLPRPRPRPFPKPRP | -0.0266
114 | RRIRVRPPRLPRPRPRPFQKPRP | 0.0406
115 | RRIRVRPPRLPRPRPRPFRDPRP | -0.0207
116 | RRIRVRPPRLPRPRPRPFRIPRP | -0.26
117 | RRIRVRPPRLPRPRPRPFTIPRP | -0.085
118 | RRIRVRPPRLPRPRPRPFVRPRP | -0.0708
119 | RRIRVRPPRLPRPRPRPFWCPRP | -0.121
120 | RRIRVRPPRLPRPRPRPFWRPRP | 0.0595
121 | RRIRVRPPRLPRPRPRPFYEPRP | -0.453
122 | RRIRVRPPRLPRPRPRPGAFPRP | 0.0224
123 | RRIRVRPPRLPRPRPRPGAMPRP | 0.0686
124 | RRIRVRPPRLPRPRPRPGAPPRP | 0.603
125 | RRIRVRPPRLPRPRPRPGCIPRP | -0.0275

Row | Sequence | shrunken log2 fold change
126 | RRIRVRPPRLPRPRPRPGCNPRP | -0.216
127 | RRIRVRPPRLPRPRPRPGCRPRP | 0.5
128 | RRIRVRPPRLPRPRPRPGDWPRP | 0.432
129 | RRIRVRPPRLPRPRPRPGEKPRP | -0.186
130 | RRIRVRPPRLPRPRPRPGETPRP | -0.238
131 | RRIRVRPPRLPRPRPRPGFEPRP | 0.554
132 | RRIRVRPPRLPRPRPRPGFKPRP | -0.0945
133 | RRIRVRPPRLPRPRPRPGGSPRP | 0.0297
134 | RRIRVRPPRLPRPRPRPGHEPRP | -0.0501
135 | RRIRVRPPRLPRPRPRPGHRPRP | -0.0978
136 | RRIRVRPPRLPRPRPRPGIQPRP | 0.0729
137 | RRIRVRPPRLPRPRPRPGKIPRP | -0.346
138 | RRIRVRPPRLPRPRPRPGLFPRP | 0.0268
139 | RRIRVRPPRLPRPRPRPGMKPRP | -1.14
140 | RRIRVRPPRLPRPRPRPGMTPRP | 0.177
141 | RRIRVRPPRLPRPRPRPGNIPRP | -0.116
142 | RRIRVRPPRLPRPRPRPGPHPRP | 0.121
143 | RRIRVRPPRLPRPRPRPGPLPRP | 0.0392
144 | RRIRVRPPRLPRPRPRPGRCPRP | 0.627
145 | RRIRVRPPRLPRPRPRPGSFPRP | -0.122
146 | RRIRVRPPRLPRPRPRPGSSPRP | -0.169
147 | RRIRVRPPRLPRPRPRPGTRPRP | -0.0152
148 | RRIRVRPPRLPRPRPRPGTTPRP | -0.108
149 | RRIRVRPPRLPRPRPRPGTVPRP | 0.421
150 | RRIRVRPPRLPRPRPRPGVFPRP | 0.117

From the supplement of paper PMC9112550, “Optimization of the antimicrobial peptide Bac7 by deep mutational scanning” (BMC Biology, 2022)
